The text below walks through data of US11733246B2, “Compositions, imaging, and therapeutic methods targeting folate receptor 1 (FOLR1)” (Indi Molecular, Inc., priority 2020, dated 2023).

Numbered stars: 1 amine (or outer) side, 2 acyl side, 3 side chain; on linkers, the order of the positions; unused ones are H or OH. Bridge positions count the residues as written; N and C are the ends. Square brackets hold non-standard residues; d marks the D form. Triazole bridges read from a SMILES are 1,4-linked. Side chains are listed from the residue outwards. Peptide text beside a SMILES is read from it. * marks the point of attachment. ξ: configuration not given here. DOTA = O=C(O)CN1CCN(CC(=O)O)CCN(CC(=O)*)CCN(CC(=O)O)CC1; Pteroyl = Nc1nc2ncc(CNc3ccc(C(=O)*)cc3)nc2c(=O)[nH]1; Biotin = O=C1N[C@H]2[C@H](CS[C@H]2CCCCC(=O)*)N1; Butanoyl(4-(4-MePh)) = Cc1ccc(CCCC(=O)*)cc1; dLys(N3) = [N-]=[N+]=NCCCC[C@@H](N)C(=O)O; Lys(N3) = [N-]=[N+]=NCCCC[C@H](N)C(=O)O; γGlu = O=C(O)[C@H](CCC(=O)[*:2])N[*:1]; AEEEA = NCCOCCOCCOCC(=O)O; Pra = C#CC[C@H](N)C(=O)O; ξPra = C#CCC(N)C(=O)O; X2 = NOCC(=O)*

Data set [1] can be described thus: Plasma protein binding (equilibrium dialysis), human. It counts as in vitro ADME. As for the experimental part:
(§1) HTD 96 a/b regenerated cellulose membrane strips with mass cutoff of 12-14 kDa were soaked in ultra-pure water at room temperature for 1 hour. Each swelled membrane was then soaked in 20:80 ethanol:water for 20 minutes.
(§2) Just prior to the experiment, the membranes were re-soaked in ultra-pure water. Plasma was prepared by thawing under cold water. The plasma was centrifuged to remove any clots and pH was adjusted to 7.0-8.0. Test articles and control compounds were diluted to 2 μM. The dialysis device was loaded by transferring 150 μL of the test article (in triplicate) to the donor side. The dialysis device was placed in a humidified incubator at 37° C. with 5% CO2 in a shaking platform that rotated slowly for 4 hours. After incubation, 50 μL of the supernatant was taken from both sides and analyzed by LC-MS/MS.
(§3) To optimize the albumin binding potential of the heterobiligand, a plasma protein binding (PPB) experiment was performed. This experiment measured the amount of test article bound and free after equilibrating with plasma. Compound #6305 (folate-hshta-Lys(MPBA)-Gly-Phe-Lys(DOTA) (SEQ ID NO:6)), which contains the MPBA albumin binder, was 96.26% bound to mouse plasma and 98.34% bound to human plasma. […] In mouse and human plasmas 99.6% and 99.5% was bound, respectively.
Background: Equilibrium dialysis compares concentrations on both sides of a semipermeable membrane.

Data set [2] in a line: Plasma protein binding (equilibrium dialysis), mouse. Format: in vitro ADME, CD-1 mouse. As for the experimental part: as §1, §2, §3
The target of the next data set is human recombinant NEP (Homo sapiens, UniProt P08473). Format: biochemical. As for the experimental part: In order to test the susceptibility of GFK and MVK linkers to NEP-mediated cleavage, the peptide (Folate-hshta-Lys(MPBA)-Gly-Phe-Lys(DOTA) (SEQ ID NO:6)) was incubated with human recombinant NEP and analyzed the solution for the presence of cleaved adducts. MALDI was utilized to monitor the cleavage of a PCC heterobiligand that contains a NEP protease recognizable sequence (G-F-K). The PCC concentration was constant and the NEP concentration was titrated down from 10 nM to 1 nM, 0.1 nM, 0.01 nM, and no NEP. The NEP-mediated cleaved adduct was identified by mass. 10 μM PCC containing the GFK linker was combined with varying amounts of NEP. […] Below 0.1 nM no cleavage was observed. • Folate-hshta-Lys(MPBA)-Gly-Phe-Lys(DOTA) (SEQ ID NO:6) • Molecular weight 2231.42
The NEP-mediated cleavage was also monitored by HPLC. In agreement with the MALDI spectra, the HPLC chromatograms show depletion of the parent brush-border heterobiligand (retention time 17.1 minutes), dose-dependent on the amount of NEP spiked into the sample (10 nM, 1 nM, 0.1 nM, 0.01 nM, and no NEP). An appearance of a new peak (retention time 16.5 minutes) in concert with the depletion of the starting material is presumed to be the cleaved folate-containing peptide.
In order to test the specificity of NEP, a non-cleavable linker (PEG3) was also assayed.
To reduce the radioactive dose to the kidney, Indi ^177Lu-7327 was constructed to incorporate a GFK linker that is susceptible to cleavage by enzymes found predominately in the kidney's brush border. These enzymes cleave off the radionuclide-chelator complex, which is quickly eliminated by the kidney for excretion in the urine. The zinc metalloprotease neprilysin (NEP) is expressed with high abundance in the kidney. […] To confirm NEP-mediated cleavage of the GFK linker in Indi 7327, the peptide was incubated with recombinant human NEP at 37° C. for 1 h and analyzed by matrix-assisted laser desorption/ionization mass spectrometry (MALDI-MS) for the evolution of cleaved adducts (FIG. 42). […] The expected cleaved adduct (mass: 1283.16 m/z) appears in the samples containing 10, 1.0, and 0.1 nM NEP. […] Below 0.1 nM NEP, no cleavage was observed. In addition to confirming the selectivity of NEP for the GFK linker, it is also important to note that the remaining portions of the Indi 7327 were impervious to the enzyme.

The subject of another data set is OVCAR3 FOLR1+ cells. Nature of the data set: Flow cytometry binding to FOLR1 (+) cells. It counts as cell-based, human. The following applies: OVCAR3 vs PC-3, flow cytometry. The procedure:
Both the kyeet (SEQ ID NO:9) and hshta (SEQ ID NO:6)-derived biligands were tested by flow cytometry for binding to FOLR1 (+) and FOLR1 (−) cell lines (FIGS. 6 and 7). The human ovarian adenocarcinoma-derived cell line OVCAR3 has robust FOLR1 expression and was selected as the FOLR1 (+) cell line. The human prostate adenocarcinoma-derived cell line PC-3 was selected as a FOLR1 (−) cell line.
Competition at the cellular level was also probed.
Increasing the serum-bound fraction of the peptide may decrease first pass removal of the heterobiligand, and drive compound retention of tumor over kidney. Constructs bearing the known albumin binder 4-methylphenyl butyric acid (4-MPBA) were synthesized. These compounds were evaluated in vitro to verify binding fidelity to FOLR1. The modified heterobiligands were incubated at 400 nM with OVCAR3 and PC-3 cells for 20 minutes at 37° C. in complete media containing 20% FBS. They both bind to OVCAR3 FOLR1+ cells with similar binding affinities as the original heterobiligand studied (FIG. 14). […] Similar activity of these heterobiligands is anticipated in vivo.
On the technique in general: Flow cytometry measures light scatter and fluorescence of single cells or particles in a stream.

Sequence of human recombinant NEP (P08473 whole entry): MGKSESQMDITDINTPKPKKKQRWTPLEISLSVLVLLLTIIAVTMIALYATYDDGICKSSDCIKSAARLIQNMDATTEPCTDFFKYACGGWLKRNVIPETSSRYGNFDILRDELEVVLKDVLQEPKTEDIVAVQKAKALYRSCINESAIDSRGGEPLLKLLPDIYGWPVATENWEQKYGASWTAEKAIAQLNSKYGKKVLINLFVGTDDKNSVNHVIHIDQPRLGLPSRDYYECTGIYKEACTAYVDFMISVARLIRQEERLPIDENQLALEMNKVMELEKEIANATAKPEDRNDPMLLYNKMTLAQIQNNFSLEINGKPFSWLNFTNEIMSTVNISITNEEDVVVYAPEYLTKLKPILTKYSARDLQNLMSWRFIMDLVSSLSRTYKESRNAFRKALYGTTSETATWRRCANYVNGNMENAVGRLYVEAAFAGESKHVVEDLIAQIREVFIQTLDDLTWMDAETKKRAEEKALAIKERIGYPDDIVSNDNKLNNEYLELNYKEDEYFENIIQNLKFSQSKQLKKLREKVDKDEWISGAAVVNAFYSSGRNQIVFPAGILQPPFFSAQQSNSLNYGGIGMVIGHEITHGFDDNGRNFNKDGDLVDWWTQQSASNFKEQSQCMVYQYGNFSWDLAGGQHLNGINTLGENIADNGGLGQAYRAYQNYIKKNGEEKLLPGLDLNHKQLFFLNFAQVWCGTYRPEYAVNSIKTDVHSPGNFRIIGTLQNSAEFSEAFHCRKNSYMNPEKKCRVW

On to `Cc1ccc(CCCC(=O)NCCCC[C@@H](NC(=O)[C@H]2CCCCn3cc(nn3)CC(NC(=O)CC[C@H](NC(=O)c3ccc(NCc4cnc5nc(N)[nH]c(=O)c5n4)cc3)C(=O)O)C(=O)N[C@@H](Cc3cnc[nH]3)C(=O)N[C@@H](CO)C(=O)N[C@@H](Cc3cnc[nH]3)C(=O)N[C@@H]([C@@H](C)O)C(=O)N[C@@H](C)C(=O)N2)C(=O)NCC(=O)N[C@H](Cc2ccccc2)C(=O)N[C@H](CCCCNC(=O)COCCOCCOCCNC(=O)CN2CCN(CC(=O)O)CCN(CC(=O)O)CCN(CC(=O)O)CC2)C(=O)O)cc1` (stereo partly drawn) [compound 3302, Fol-hshta-Lys(4-MPBA)-Gly-Phe-Lys(PEG3-DOTA)] ({Pteroyl-γGlu}-[ξPra]HSHTA[dLys(N3)][dK](Butanoyl(4-(4-MePh)))G[dF][dK]([AEEEA-DOTA])-OH; triazole 1-7), for which the recovery at 4 h, 2 μM in data set [1] (human) amounted to 88.1%; in data set [2] (CD-1, mouse), 103%. For the same molecule, the fraction unbound at 4 h, 2 μM in data set [1] (human, plasma) was 0.051; in data set [2] (CD-1, mouse, plasma) it was 0.035. Moreover, the “in vitro Assay Data (NEP assay)” value in the data set with human recombinant NEP is recorded as “Cleavage of -G-F-K-”.

On to `C[C@@H](O)[C@@H]1NC(=O)[C@H](CCCCN)NC(=O)[C@@H](Cc2c[nH]c3ccccc23)NC(=O)[C@H](Cc2ccccc2)NC(=O)[C@@H](NC(=O)[C@H](N)Cc2ccccc2)CSSC[C@@H](C(=O)N[C@H](CO)[C@@H](C)O)NC1=O` [Octreotide Acetate, reference compound], for which the recovery at 4 h, 2 μM in data set [1] (Hu (human plasma), recovery in plasma protein binding assay, read-out: (% Recovery)) was determined as 84.3%; in data set [2] (Mu (CD-1 mouse plasma), recovery in plasma protein binding assay, read-out: (% Recovery)), 84.5%. Also, the fraction unbound at 4 h, 2 μM turned out to be 0.406 in data set [1] (Hu (human plasma), read-out: Plasma % Bound) and 0.376 in data set [2] (Mu (CD-1 mouse plasma), read-out: Plasma % Bound).

With `C[C@@H]1NC(=O)[C@H]([C@@H](C)O)NC(=O)[C@H](Cc2cnc[nH]2)NC(=O)[C@H](CO)NC(=O)[C@H](Cc2cnc[nH]2)NC(=O)C(NC(=O)CC[C@H](NC(=O)c2ccc(NCc3cnc4nc(N)[nH]c(=O)c4n3)cc2)C(=O)O)Cc2cn(nn2)CCCC[C@H](C(=O)NCCOCCOCCOCC(=O)NCC(=O)N[C@H](Cc2ccccc2)C(=O)N[C@H](CCCCNC(=O)CN2CCN(CC(=O)O)CCN(CC(=O)O)CCN(CC(=O)O)CC2)C(=O)O)NC1=O` (stereo partly drawn) [compound 6307, Fol-hshta-PEG3-Gly-Phe-Lys(DOTA)] ({Pteroyl-γGlu}-[ξPra]HSHTA[dLys(N3)][AEEEA]G[dF][dK](DOTA)-OH; triazole 1-7), the recovery at 4 h, 2 μM was determined as 81.6% in data set [1] (human) and 68.9% in data set [2] (CD-1, mouse). The fraction unbound at 4 h, 2 μM in data set [1] (human, plasma) worked out at 0.587; in data set [2] (CD-1, mouse, plasma) it was 0.594. Besides, the “in vitro Assay Data (NEP assay)” value with human recombinant NEP was “Cleavage of -G-F-K-”.

On to `C[C@H](O)[C@H]1NC(=O)[C@@H](CCC(=O)O)NC(=O)[C@@H](CCC(=O)O)NC(=O)[C@@H](Cc2ccc(O)cc2)NC(=O)[C@@H](CCCCN)NC(=O)[C@@H](NC(=O)COCCOCCOCCNC(=O)CCCC[C@@H]2SC[C@@H]3NC(=O)N[C@@H]32)Cc2cn(nn2)CCCC[C@@H](C(N)=O)NC1=O` [kyeet] ({Biotin-AEEEA}-[Pra][dK][dY][dE][dE][dT][Lys(N3)]-NH2; triazole 1-7), for which the “selectivity for FOLR1 (+) cells over FOLR1 (−) cells” value (shortened to “selectivity for FOLR1 (+) cells”) in the data set on OVCAR3 FOLR1+ cells is “slight binding selectivity for FOLR1 (+) cells”.

For the molecule `C[C@H](O)[C@H]1NC(=O)[C@@H](Cc2ccc(O)cc2)NC(=O)[C@@H](CCCNC(=N)N)NC(=O)[C@@H](CCC(=O)O)NC(=O)[C@@H](CC(=O)O)NC(=O)[C@@H](NC(=O)[C@H](Cc2cn(CCOCCOCCOCCNC(=O)CC[C@H](NC(=O)c3ccc(NCc4cnc5nc(N)[nH]c(=O)c5n4)cc3)C(=O)O)nn2)NC(=O)CCOCCOCCOCCOCCOCCOCCOCCOCCOCCOCCNC(=O)CCOCCOCCOCCOCCOCCOCCOCCOCCOCCOCCNC(=O)CCCC[C@@H]2SC[C@@H]3NC(=O)N[C@@H]32)Cc2cn(nn2)CCCC[C@@H](C(N)=O)NC1=O` [Folate-deryt], the “selectivity for FOLR1 (+) cells” value with OVCAR3 FOLR1+ cells was “excellent selectivity for FOLR1 (+) cells”.

Regarding `C[C@@H]1NC(=O)[C@H]([C@@H](C)O)NC(=O)[C@H](Cc2cnc[nH]2)NC(=O)[C@H](CO)NC(=O)[C@H](Cc2cnc[nH]2)NC(=O)C(NC(=O)CC[C@H](NC(=O)c2ccc(NCc3cnc4nc(N)[nH]c(=O)c4n3)cc2)C(=O)O)Cc2cn(nn2)CCCC[C@H](C(=O)NCCOCCOCCOCC(=O)N[C@H](CCCCNC(=O)CN2CCN(CC(=O)O)CCN(CC(=O)O)CCN(CC(=O)O)CC2)C(N)=O)NC1=O` (some centres unmarked) [compound 1189, Fol-hshta-PEG3-Lys(DOTA)] ({Pteroyl-γGlu}-[ξPra]HSHTA[dLys(N3)][AEEEA][dK](DOTA)-NH2; triazole 1-7), the recovery at 4 h, 2 μM in data set [1] (human) stood at 102%; in data set [2] (CD-1, mouse), 97.4%. Besides, the fraction unbound at 4 h, 2 μM in data set [1] (human, plasma) worked out at 0.54; in data set [2] (CD-1, mouse, plasma), 0.705. Moreover, the “in vitro Assay Data (NEP assay)” value in the data set with human recombinant NEP was “resistant to NEP”.

On to `C[C@H](O)[C@H]1NC(=O)[C@@H](Cc2c[nH]cn2)NC(=O)[C@@H](CO)NC(=O)[C@@H](Cc2c[nH]cn2)NC(=O)[C@@H](NC(=O)[C@H](Cc2cn(CCOCCOCCOCCNC(=O)CC[C@H](NC(=O)c3ccc(NCc4cnc5nc(N)[nH]c(=O)c5n4)cc3)C(=O)O)nn2)NC(=O)CCOCCOCCOCCOCCOCCOCCOCCOCCOCCOCCNC(=O)CCOCCOCCOCCOCCOCCOCCOCCOCCOCCOCCNC(=O)CCCC[C@@H]2SC[C@@H]3NC(=O)N[C@@H]32)Cc2cn(nn2)CCCC[C@@H](C(N)=O)NC(=O)[C@@H](C)NC1=O` [Tz heterobiligand], for which the “selectivity for FOLR1 (+) cells” value in the data set with OVCAR3 FOLR1+ cells is “high selectivity for FOLR1 (+) cells”.

On to `Cc1ccc(CCCC(=O)NCCCC[C@H](NC(=O)[C@@H]2CCCCn3cc(nn3)C[C@H](NC(=O)CC[C@H](NC(=O)c3ccc(NCc4cnc5nc(N)[nH]c(=O)c5n4)cc3)C(=O)O)C(=O)N[C@H](Cc3cnc[nH]3)C(=O)N[C@H](CO)C(=O)N[C@H](Cc3cnc[nH]3)C(=O)N[C@H]([C@H](C)O)C(=O)N[C@H](C)C(=O)N2)C(=O)NCC(=O)N[C@@H](Cc2ccccc2)C(=O)N[C@@H](CCCCNC(=O)CON)C(=O)O)cc1` [compound 3304, Fol-hshta-Lys(4-MPBA)-Gly-Phe-Lys(AO)] ({Pteroyl-γGlu}-[Pra][dH][dS][dH][dT][dA][Lys(N3)]K(Butanoyl(4-(4-MePh)))GFK(X2)-OH; triazole 1-7), for which, in the data set with human recombinant NEP, the “in vitro Assay Data (NEP assay)” value is recorded as “Cleavage of -G-F-K-”.
